Assay [1] has as its target T1, Recombinant human MMR (R&D systems) (human, UniProt P22897 19-1383).
T1 construct: Bought protein (R&D Systems #2534) coated on ELISA plates; also called hMMR; MRC1
T1 sequence: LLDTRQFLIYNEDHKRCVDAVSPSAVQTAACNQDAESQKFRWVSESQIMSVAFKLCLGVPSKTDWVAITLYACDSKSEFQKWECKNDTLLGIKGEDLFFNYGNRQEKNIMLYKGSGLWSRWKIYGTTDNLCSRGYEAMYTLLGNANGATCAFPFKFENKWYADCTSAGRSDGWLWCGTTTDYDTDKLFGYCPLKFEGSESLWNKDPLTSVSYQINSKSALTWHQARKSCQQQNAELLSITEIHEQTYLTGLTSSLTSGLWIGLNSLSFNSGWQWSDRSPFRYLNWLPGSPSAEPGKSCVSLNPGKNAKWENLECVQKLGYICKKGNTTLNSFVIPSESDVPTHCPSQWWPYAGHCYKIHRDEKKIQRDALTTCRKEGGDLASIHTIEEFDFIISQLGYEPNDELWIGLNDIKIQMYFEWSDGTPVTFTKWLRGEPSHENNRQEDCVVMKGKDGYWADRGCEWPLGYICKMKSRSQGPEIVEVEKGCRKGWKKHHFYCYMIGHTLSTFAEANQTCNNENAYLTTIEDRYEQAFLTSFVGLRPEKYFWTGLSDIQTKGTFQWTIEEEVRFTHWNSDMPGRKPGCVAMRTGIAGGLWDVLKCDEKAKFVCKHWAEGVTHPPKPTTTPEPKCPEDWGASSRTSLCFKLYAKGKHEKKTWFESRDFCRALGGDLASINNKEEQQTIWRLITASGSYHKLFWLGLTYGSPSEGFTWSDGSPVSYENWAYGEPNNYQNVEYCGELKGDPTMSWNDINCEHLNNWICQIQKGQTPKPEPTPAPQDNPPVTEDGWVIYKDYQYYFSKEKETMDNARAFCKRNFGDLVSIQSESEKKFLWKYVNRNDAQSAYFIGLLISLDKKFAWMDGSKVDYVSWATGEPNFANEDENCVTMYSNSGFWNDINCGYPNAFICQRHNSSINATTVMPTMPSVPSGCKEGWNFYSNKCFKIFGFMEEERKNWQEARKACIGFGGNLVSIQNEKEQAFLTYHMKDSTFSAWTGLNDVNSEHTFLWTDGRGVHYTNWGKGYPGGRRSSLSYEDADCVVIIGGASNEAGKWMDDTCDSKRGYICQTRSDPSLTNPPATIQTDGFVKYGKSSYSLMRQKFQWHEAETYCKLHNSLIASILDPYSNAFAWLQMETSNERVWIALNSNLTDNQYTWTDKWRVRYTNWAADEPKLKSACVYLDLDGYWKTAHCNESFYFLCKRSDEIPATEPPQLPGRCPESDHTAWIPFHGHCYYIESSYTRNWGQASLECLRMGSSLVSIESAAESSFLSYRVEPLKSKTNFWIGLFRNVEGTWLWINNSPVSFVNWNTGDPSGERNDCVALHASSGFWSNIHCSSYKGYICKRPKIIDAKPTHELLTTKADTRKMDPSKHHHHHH
The experiment in a line: PE-ELISA, periplasmic extract on coated human MMR, OD405 at least 3x over milk-blocking proteins. In general terms: In an ELISA, binding on a coated surface is turned into a signal by an enzyme label.

The target in assay [2] is T2, Recombinant mouse MMR (R&D systems) (mouse, UniProt Q61830 20-1388).
T2 construct: Bought recombinant extracellular portion of mouse MMR with a C-terminal His tag; It was immobilized on the CM5 chip for SPR and coated on plates for PE-ELISA; The SPR methods say only 'MMR'; also called mMMR; recombinant MMR
T2 sequence: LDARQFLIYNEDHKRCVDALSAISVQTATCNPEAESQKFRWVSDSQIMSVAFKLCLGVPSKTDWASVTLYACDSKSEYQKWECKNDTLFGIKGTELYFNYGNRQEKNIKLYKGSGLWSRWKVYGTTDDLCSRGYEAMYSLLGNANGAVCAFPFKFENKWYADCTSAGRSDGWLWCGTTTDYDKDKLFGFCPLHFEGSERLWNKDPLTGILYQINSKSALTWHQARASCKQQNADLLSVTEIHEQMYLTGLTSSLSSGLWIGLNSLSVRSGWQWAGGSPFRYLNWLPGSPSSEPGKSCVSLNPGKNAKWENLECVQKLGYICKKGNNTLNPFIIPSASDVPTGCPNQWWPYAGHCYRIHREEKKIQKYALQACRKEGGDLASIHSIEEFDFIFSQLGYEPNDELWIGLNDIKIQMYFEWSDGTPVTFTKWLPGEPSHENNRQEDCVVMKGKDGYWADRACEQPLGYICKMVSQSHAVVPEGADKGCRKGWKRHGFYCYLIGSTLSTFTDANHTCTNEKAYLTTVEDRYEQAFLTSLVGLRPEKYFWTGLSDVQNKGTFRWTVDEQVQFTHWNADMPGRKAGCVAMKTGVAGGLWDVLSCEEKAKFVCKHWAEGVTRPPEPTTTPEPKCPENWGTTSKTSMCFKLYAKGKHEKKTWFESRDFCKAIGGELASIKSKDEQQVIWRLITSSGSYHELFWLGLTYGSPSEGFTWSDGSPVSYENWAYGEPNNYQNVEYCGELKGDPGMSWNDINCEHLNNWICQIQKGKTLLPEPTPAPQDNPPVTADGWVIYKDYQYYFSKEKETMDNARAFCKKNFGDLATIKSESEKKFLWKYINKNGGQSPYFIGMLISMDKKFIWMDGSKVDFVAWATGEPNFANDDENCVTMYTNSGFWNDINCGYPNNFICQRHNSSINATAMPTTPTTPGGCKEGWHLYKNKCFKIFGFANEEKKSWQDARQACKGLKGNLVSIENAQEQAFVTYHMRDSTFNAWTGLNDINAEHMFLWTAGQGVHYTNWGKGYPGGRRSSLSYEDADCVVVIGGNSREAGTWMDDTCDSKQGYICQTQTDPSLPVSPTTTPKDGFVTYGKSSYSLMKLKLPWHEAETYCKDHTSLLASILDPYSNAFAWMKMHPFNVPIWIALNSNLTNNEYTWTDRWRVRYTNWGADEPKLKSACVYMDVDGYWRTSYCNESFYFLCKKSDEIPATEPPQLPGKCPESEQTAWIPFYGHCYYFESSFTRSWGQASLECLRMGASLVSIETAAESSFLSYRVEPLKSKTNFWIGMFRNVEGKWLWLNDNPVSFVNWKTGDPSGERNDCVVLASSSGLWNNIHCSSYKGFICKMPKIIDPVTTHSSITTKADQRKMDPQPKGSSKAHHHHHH
The assay is described as follows: SPR on immobilized recombinant MMR. How it is done:
(§1) Affinity analysis was performed using a BIAcore T100 (GE Healthcare) with HEPES-buffered saline running buffer (10 mM HEPES with 0.15 M NaCl, 3.4 mM EDTA and 0.005% surfactant P20 at pH 7.4). MRR was immobilized on a CM5 chip in acetate buffer 50 mM (pH 5.0), resulting in 2100 RU MMR coated on the chip. A second channel on the same chip was activated/deactivated in a similar way and served as a negative control. The MMR Nanobodies were used as analytes in eleven different concentrations, ranging from 1 to 2000 nM, at a flow rate of […]. Glycine-HCl 50 mM (pH 2.0) was used for elution. The kinetic and equilibrium parameters (kd, ka and KD) values were calculated from the combined sensogram of all concentrations using BIAcore T100 evaluation software 2.02 (GE Healthcare).
Nanobodies (Nb) were raised against the recombinant extracellular portion of MMR (α-MMR Nb), as described in the Materials and Methods (see also Example 9; Table 4). The binding characteristics of the monovalent anti-MMR nanobodies were compared using surface Plasmon resonance measurements (Table 5). […] Further, bivalent nanobodies were constructed by linking two anti-MMR nanobody 1 entities using (G₄S)₃ ([…]; SEQ ID NO:121), llama IgG2 hinge ([…]; SEQ ID NO:122) or human IgA hinge ([…] SEQ ID NO:123) linkers. […] As a negative control nanobody in all experiments, we consistently used α-BCII10 Nb, which is a binder of the β-lactamase BCII enzyme of Bacillus cereus.

In assay [3] the target is T2, Recombinant mouse MMR (R&D systems). The assay is described as follows: SPR, BIAcore T100, MMR immobilized on CM5 chip, bivalent Nb as analyte. How it is done:
as §1
(In SPR one partner is held on a chip, and binding of the other changes the refractive index at the surface.)

The target is the same in assay [4]. The assay is described as follows: SPR, BIAcore T100, MMR immobilized on CM5 chip, Nb as analyte. How it is done: as §1
Nanobodies (Nb) were raised against the recombinant extracellular portion of MMR (α-MMR Nb), as described in the Materials and Methods (see also Example 9; Table 4). The binding characteristics of the monovalent anti-MMR nanobodies were compared using surface Plasmon resonance measurements (Table 5). […] Further, bivalent nanobodies were constructed by linking two anti-MMR nanobody 1 entities using (G₄S)₃ ([…]; SEQ ID NO:121), llama IgG2 hinge ([…]; SEQ ID NO:122) or human IgA hinge ([…] SEQ ID NO:123) linkers. […]

The target of assay [5] is T1, Recombinant human MMR (R&D systems). The assay is described as follows: listed as a cross-reactive Nb; selection by PE-ELISA on human MMR (Example 26).

B1: NbhMMRm16.95 (VHH)
VHH: QVQLQESGGGLVQPGGSLGLSCAASGRIASISAMGWYRQAPGKQRELVAAITGSGRTNYADSVKGRFTISRDNAKNTVYLQMNSLKPEDTAVYYCNLLMVDYGLGLGTDYWGQGTQVTVSS
notes: Tested as a periplasmic extract in PE-ELISA
As for B1, the binding result in assay [1] is “binds”.

B2: bivalent anti-MMR Nanobody 1 with human IgA hinge linker (VHH)
chain: QVQLQESGGGLVQPGGSLRLSCAASGNIFSINAIGWYRQAPGKQRELVATITLSGSTNYADSVKGRFSISRDNAKNTVYLQMNSLKPEDTAVYYCNANTYSDSDVYGYWGQGTQVTVSSSPSTPPTPSPSTPPASQVQLQESGGGLVQPGGSLRLSCAASGNIFSINAIGWYRQAPGKQRELVATITLSGSTNYADSVKGRFSISRDNAKNTVYLQMNSLKPEDTAVYYCNANTYSDSDVYGYWGQGTQVTVSSHHHHHH
notes: Two copies of Nb clone 1 in one chain joined by the human IgA hinge linker, with a C-terminal His tag; also called biv MMR linker 3 IgA; MMR biv IgA
Consider B2, for which, in assay [2], the “fold higher avidity compared to the monovalent clone 1 nanobody” value (“fold higher avidity” below) worked out at 5 fold. The Kd in assay [3] worked out at 4.69 nM.

B3: NbhMMRm15.43 (VHH)
VHH: QVQLQESGGTLVQPGGSLRLSCAASGSTFSINNMGWYRQAPGKQRELVAGITGGNTHYADSVKGRFTISRDNAKNTMYLQMNGLKPEDTAVYYCNANWGAYWGQGTQVTVSS
notes: as for B1
As to B3, in assay [1], the binding result is listed as “binds”.

B4: anti-MMR Nanobody clone 3 (VHH)
VHH: QVQLQESGGGLVQAGGSLRLSCAASGRTFSRDAMGWFRQAPGKEREFVAGISWSGGSTYYADSVKGRFTISRDGAKNTVNLQMNSLKPEDTAVYYCAASSIYGSAVVDGLYDYWGQGTQVTVSS
notes: also called Anti-MMR Nb3; Nb clone 3
Take B4: in assay [4], the Kd came out at 191 nM.

B5: bivalent anti-MMR Nanobody 1 with llama IgG2 hinge linker (VHH)
chain: QVQLQESGGGLVQPGGSLRLSCAASGNIFSINAIGWYRQAPGKQRELVATITLSGSTNYADSVKGRFSISRDNAKNTVYLQMNSLKPEDTAVYYCNANTYSDSDVYGYWGQGTQVTVSSAHHSEDPSSKAPKAPMAQVQLQESGGGLVQPGGSLRLSCAASGNIFSINAIGWYRQAPGKQRELVATITLSGSTNYADSVKGRFSISRDNAKNTVYLQMNSLKPEDTAVYYCNANTYSDSDVYGYWGQGTQVTVSSHHHHHH
notes: Two copies of Nb clone 1 in one chain joined by the llama IgG2 hinge linker, with a C-terminal His tag; also called biv MMR linker 2 g2c; MMR biv g2c
Consider B5, for which the “fold higher avidity” value in assay [2] turned out to be 5 fold. Besides, the Kd in assay [3] was determined as 4.04 nM.

B6: NbhMMRm11.5 (VHH)
VHH: QVQLQESGGGLVQPGGSLMLSCAASGNIFTINRMGWYRQAPGKQRELVAAITSGGNTNYADSVKGRFTISRDNAKNTVYLQMNSLKPEDTAVYYCNAAIVTMTSPYSDYWGQGTQVTVSS
notes: as for B1
As for B6, the binding result in assay [1] is given as “binds”.

B7: NbhmMMRm7.67 (VHH)
VHH: QVQLQESGGGLVQAGGSLRLSCVDQGRTFSVNAMAWYRQAPGKQRELVASITSSGLDTQYAEGMKGRFTISKGNDKFSTYLQMNNLKPDDTAVYYCNAERWDNGMVYWGKGTQVTVSS
As to B7, in assay [5], the binding result was “binds”.

B8: bivalent anti-MMR Nanobody 1 with (Gly4Ser)3 linker (VHH)
chain: QVQLQESGGGLVQPGGSLRLSCAASGNIFSINAIGWYRQAPGKQRELVATITLSGSTNYADSVKGRFSISRDNAKNTVYLQMNSLKPEDTAVYYCNANTYSDSDVYGYWGQGTQVTVSSGGGGSGGGGSGGGGSQVQLQESGGGLVQPGGSLRLSCAASGNIFSINAIGWYRQAPGKQRELVATITLSGSTNYADSVKGRFSISRDNAKNTVYLQMNSLKPEDTAVYYCNANTYSDSDVYGYWGQGTQVTVSSHHHHHH
notes: Two copies of Nb clone 1 in one chain joined by a (G4S)3 linker, with a C-terminal His tag; also called biv MMR linker 1 GS; MMR biv (Gly4Ser)3
B8: the “fold higher avidity” value in assay [2] worked out at 5 fold. The Kd in assay [3] was 4.22 nM.

B9: anti-MMR Nanobody clone 1 (VHH)
VHH: QVQLQESGGGLVQPGGSLRLSCAASGNIFSINAIGWYRQAPGKQRELVATITLSGSTNYADSVKGRFSISRDNAKNTVYLQMNSLKPEDTAVYYCNANTYSDSDVYGYWGQGTQVTVSS
notes: Monovalent alpaca VHH against mouse MMR; Alexa-fluor labelled for flow cytometry and immunofluorescence; also called Anti-MMR Nb1; anti-MMR Nb clone 1
In the case of B9, the “fold higher apparent affinity compared to nanobody clone 3” value in assay [2] amounted to 8 fold. Besides, in assay [4], the Kd stood at 23.1 nM.

B10: NbhMMRm12.6 (VHH)
VHH: QVQLQESGGGLVQPGGSLRLSCVVSGSFLSINHMGWYRQVSGEQRELVAAITSGGSTNYADSVKGRFTISRDSAKNTVYLQMNSLKPEDTAVYYCNADALTMLPPFDFWGQGTQVTVSS
notes: as for B1
For the molecule B10, the binding result in assay [1] is “binds”.

For the origin of these results see patent publication US20120301394A1 (published 2012).
